What was measured:
[1] = molecular target: Thioredoxin reductase from Sphingomonas sp. PAMC 26621 (SpTR) (Sphingomonas sp. PAMC 26621)
[2] = molecular target: Thioredoxin reductase from Sphingomonas sp. PAMC 26621 (SpTR) (Sphingomonas sp. PAMC 26621); test: SEC; Superdex 200 10/300 GL gel filtration in buffer D (50 mM sodium phosphate, pH 7.2, 100 mM NaCl); molecular weight against a protein standard mix

Q: “Thioredoxin from the psychrophilic Arctic bacterium Sphingomonas sp. PAMC 26621 (SpTrx), wild type (natural protein)” was tested. Which Km of SpTR for SpTrx as substrate, 4°C (DTNB reduction at 412 nm, 50 nM SpTR, 0.1-10 μM Trx) [1] did it give?
A: 1.1 µM

Q: And the Km of SpTR for SpTrx as substrate, 30°C (DTNB reduction at 412 nm, 50 nM SpTR, 0.1-10 μM Trx) [1]?
A: 0.63 µM

Q: What does the source list for SpTrx F26W mutant (natural protein)?
A: Km of SpTR for SpTrx F26W as substrate, 4°C (DTNB reduction at 412 nm, 50 nM SpTR, 0.1-10 μM Trx) [1]: 1.24 µM; Km of SpTR for SpTrx F26W as substrate, 30°C (DTNB reduction at 412 nm, 50 nM SpTR, 0.1-10 μM Trx) [1]: 0.66 µM

Q: With “Thioredoxin reductase from Sphingomonas sp. PAMC 26621 (SpTR) (enzyme)” as the substance, how does the stoichiometry N [2] read?
A: 2

Q: Which Km of SpTR for SpTrx F26Y as substrate, 4°C (DTNB reduction at 412 nm, 50 nM SpTR, 0.1-10 μM Trx) [1] does the source give for SpTrx F26Y mutant (natural protein) here?
A: 1.17 µM

Q: What about the Km of SpTR for SpTrx F26Y as substrate, 30°C (DTNB reduction at 412 nm, 50 nM SpTR, 0.1-10 μM Trx) [1] of the same substance?
A: 0.6 µM

Q: With SpTrx F26A mutant (natural protein) as the substance, how does the Km of SpTR for SpTrx F26A as substrate, 4°C (DTNB reduction at 412 nm, 50 nM SpTR, 0.1-10 μM Trx) [1] read?
A: 6.8 µM

Q: What about the Km of SpTR for SpTrx F26A as substrate, 30°C (DTNB reduction at 412 nm, 50 nM SpTR, 0.1-10 μM Trx) [1] of the same substance?
A: 6.41 µM

Source: article PMC8673628
